What was measured:
[1] = biological target: T1, TCR/FcR #2 CD16 extracellular domain (Fc binding domain) comprising polypeptide: WT high affinity CD16 … (human, UniProt P08637 17-254); experiment: flow cytometry; 1 h, 37 °C, complete media, washed (FIGS. 38C-38D)
T1 construct: these cells also carry endogenous CD16; also called TCR/FcR #2 transduced NK cells; uTNK15 and TCR/FcR #2 transduced NK cells

[2] = biological target: T2, non-transduced (NT) cord blood derived NK cells (endogenous wild type CD16; no CD3/TCR) (human, UniProt P08637 17-254); experiment: as above
T2 construct: whole, on cells; A control cell, not a single protein; for the CD3 engagers the cells are the control without CD3; also called NT NK cells; NT NK
T2 sequence (P08637 17-254): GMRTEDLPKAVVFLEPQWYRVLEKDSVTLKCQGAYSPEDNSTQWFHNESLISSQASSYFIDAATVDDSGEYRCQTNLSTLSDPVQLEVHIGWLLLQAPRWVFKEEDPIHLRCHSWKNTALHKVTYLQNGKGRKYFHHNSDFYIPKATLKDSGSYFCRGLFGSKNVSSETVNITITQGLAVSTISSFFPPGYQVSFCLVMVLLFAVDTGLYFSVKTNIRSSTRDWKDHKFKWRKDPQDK

T1 sequence (P08637 17-254 F176V limits assumed, form in doubt): as the sequence (P08637 17-254) above, with F160V counted along it

binding percentage (average across 3 trials) [1]: > 80% | binding percentage (average across 3 trials) [2]: ~70%
B1: Tafasitamab (antibody)
chain 1: EVQLVESGGGLVKPGGSLKLSCAASGYTFTSYVMHWVRQAPGKGLEWIGYINPYNDGTKYNEKFQGRVTISSDKSISTAYMELSSLRSEDTAMYYCARGTYYYGTRVFDYWGQGTLVTVSSASTKGPSVFPLAPSSKSTSGGTAALGCLVKDYFPEPVTVSWNSGALTSGVHTFPAVLQSSGLYSLSSVVTVPSSSLGTQTYICNVNHKPSNTKVDKKVEPKSCDKTHTCPPCPAPELLGGPDVFLFPPKPKDTLMISRTPEVTCVVVDVSHEDPEVQFNWYVDGVEVHNAKTKPREEQFNSTFRVVSVLTVVHQDWLNGKEYKCKVSNKALPAPEEKTISKTKGQPREPQVYTLPPSREEMTKNQVSLTCLVKGFYPSDIAVEWESNGQPENNYKTTPPMLDSDGSFFLYSKLTVDKSRWQQGNVFSCSVMHEALHNHYTQKSLSLSPGK
chain 2: DIVMTQSPATLSLSPGERATLSCRSSKSLQNVNGNTYLYWFQQKPGQSPQLLIYRMSNLNSGVPDRFSGSGSGTEFTLTISSLEPEDFAVYYCMQHLEYPITFGAGTKLEIKRTVAAPSVFIFPPSDEQLKSGTASVVCLLNNFYPREAKVQWKVDNALQSGNSQESVTEQDSKDSTYSLSSTLTLSKADYEKHKVYACEVTHQGLSSPVTKSFNRGEC

Reference: US20260275288A1 (University of Texas, published 2026)
